2 molecules from PMC3463355 can be followed below.

In general, Kd refers to the equilibrium constant for the complex coming apart. A high value points to weaker binding.

Data set [1] has as its target N-parp (Zn1-Zn3 and BRCT) (UniProt P09874 1-486). The data set can be described thus: HI-FI FRET.
The next data set deals with PARP-1 (full-length) (human, UniProt P09874 1-1014, V762A). Description: HI-FI FRET.
Chain of PARP-1 (full-length) (P09874 whole entry V762A): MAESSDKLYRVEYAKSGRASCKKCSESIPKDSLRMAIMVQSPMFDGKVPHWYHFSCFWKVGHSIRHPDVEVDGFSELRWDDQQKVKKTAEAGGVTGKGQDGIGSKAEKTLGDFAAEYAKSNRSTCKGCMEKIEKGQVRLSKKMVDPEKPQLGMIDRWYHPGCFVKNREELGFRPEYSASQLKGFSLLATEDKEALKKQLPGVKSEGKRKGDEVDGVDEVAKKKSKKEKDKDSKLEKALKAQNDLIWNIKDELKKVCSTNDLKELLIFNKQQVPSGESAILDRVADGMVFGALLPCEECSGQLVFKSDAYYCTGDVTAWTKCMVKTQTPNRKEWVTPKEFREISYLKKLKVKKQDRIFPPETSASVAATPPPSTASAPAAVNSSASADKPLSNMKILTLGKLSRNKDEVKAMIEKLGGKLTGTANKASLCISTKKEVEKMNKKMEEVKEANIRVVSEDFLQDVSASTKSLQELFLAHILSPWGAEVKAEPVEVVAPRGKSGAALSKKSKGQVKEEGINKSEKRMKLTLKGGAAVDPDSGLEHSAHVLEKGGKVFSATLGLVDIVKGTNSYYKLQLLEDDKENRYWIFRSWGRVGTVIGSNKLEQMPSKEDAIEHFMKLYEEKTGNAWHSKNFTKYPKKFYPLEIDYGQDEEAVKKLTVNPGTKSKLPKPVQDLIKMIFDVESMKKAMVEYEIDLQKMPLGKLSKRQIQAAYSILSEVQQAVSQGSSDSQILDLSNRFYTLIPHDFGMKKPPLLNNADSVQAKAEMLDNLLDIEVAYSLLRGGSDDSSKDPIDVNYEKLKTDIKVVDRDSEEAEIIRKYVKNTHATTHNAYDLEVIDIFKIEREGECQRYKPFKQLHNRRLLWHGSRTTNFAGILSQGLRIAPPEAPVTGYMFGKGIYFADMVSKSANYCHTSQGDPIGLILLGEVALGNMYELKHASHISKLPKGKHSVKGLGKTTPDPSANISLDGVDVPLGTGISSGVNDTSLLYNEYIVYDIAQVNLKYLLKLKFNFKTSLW

Chain of N-parp (Zn1-Zn3 and BRCT) (P09874 1-486): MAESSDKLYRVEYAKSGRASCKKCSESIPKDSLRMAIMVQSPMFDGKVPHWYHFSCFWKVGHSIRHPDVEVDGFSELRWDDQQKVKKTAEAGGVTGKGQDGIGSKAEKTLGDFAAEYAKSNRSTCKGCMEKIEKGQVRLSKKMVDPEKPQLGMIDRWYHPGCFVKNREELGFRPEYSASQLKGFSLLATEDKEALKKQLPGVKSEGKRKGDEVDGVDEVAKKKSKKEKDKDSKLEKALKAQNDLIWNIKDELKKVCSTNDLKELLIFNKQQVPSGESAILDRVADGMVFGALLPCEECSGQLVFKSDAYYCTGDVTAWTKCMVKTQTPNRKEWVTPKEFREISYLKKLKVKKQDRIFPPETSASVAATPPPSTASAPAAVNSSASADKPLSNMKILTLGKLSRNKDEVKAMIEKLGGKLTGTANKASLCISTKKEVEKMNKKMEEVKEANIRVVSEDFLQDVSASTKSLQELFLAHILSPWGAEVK

B1: 30AATT (dsDNA)
DNA 1: ATCAGATAGCATCAATTCGGCCGCTTAGGG
DNA 2: CCCTAAGCGGCCGAATTGATGCTATCTGAT
modifications: 4 central bp of 30Blunt (TGTG) replaced by AATT
Take B1: the Kd in data set [1] was 25.7 ± 0.9 nM; with PARP-1 (full-length) it was 8.5 ± 2.1 nM.

B2: 30Blunt (dsDNA)
DNA 1: ATCAGATAGCATCTGTGCGGCCGCTTAGGG
DNA 2: CCCTAAGCGGCCGCACAGATGCTATCTGAT
Consider B2, for which the Kd was determined as 62.2 ± 10.2 nM in data set [1] and 31.7 ± 6.9 nM with PARP-1 (full-length).
